Patent US20200407452A1 (published 2020)

Columns and labels:
[1] = biological target: T1, mouse MET ECD (mouse, UniProt P16056 25-931); assay: ELISA, MET ECD coated, mAb 0-40 nM, mouse IgG format
T1 construct: range 1-931; recombinant; range as printed includes the signal peptide; also called mMET; mMET ECD

[2] = biological target: T2, human MET ECD (human, UniProt P08581 25-932); assay: as above
T2 construct: range 1-932; recombinant; range as printed includes the signal peptide; also called hMET; hMET ECD

[3] = biological target: T3, native human MET on living cells (human, UniProt P08581 25-1390); assay: cell-based or functional assay
[4] = biological target: T4, native mouse MET on living cells (mouse, UniProt P16056 25-1379); assay: cell-based or functional assay
[5] = biological target: T3, native human MET on living cells; assay: cell-based or functional assay; remark: listed apart in the source
[6] = biological target: T4, native mouse MET on living cells; assay: cell-based or functional assay; remark: listed apart in the source
[7] = biological target: T1, mouse MET ECD; assay: ELISA, MET ECD coated, mAb 0-20 nM
Experimental: (§1) Production (by transient transfection of mammalian cells) and purification (by protein A affinity chromatography) of the resulting chimeric llama-human IgG1 molecules was outsourced to U-protein Express. Binding of chimeric mAbs to MET was determined by ELISA using hMET or mMET ECD in solid phase and increasing concentrations of antibodies (0-20 nM) in solution. […] Binding capacity (EMAX) varied from antibody to antibody, possibly due to partial epitope exposure in the immobilized antigen, but was similar in the human and mouse setting.

[8] = biological target: T2, human MET ECD; assay: ELISA, MET ECD coated, mAb 0-20 nM
Experimental: as §1

[9] = biological target: human MET ECD mutant I (mutations 6, 7, 8) (human) (UniProt P08581); assay: ELISA, WT or mutant hMET ECD coated
[10] = biological target: human MET ECD mutant J (mutations 6, 7) (human) (UniProt P08581); assay: ELISA, WT or mutant hMET ECD coated
[11] = biological target: T3, native human MET on living cells; assay: FACS, A549 cells
[12] = biological target: T2, human MET ECD; assay: ELISA, hMET ECD coated
[13] = biological target: T2, human MET ECD; assay: ELISA, WT or mutant hMET ECD coated
Experimental: Using human MET as a template, we mutagenized each of these residues in different permutations, generating a series of MET mutants that are fully human except for specific residues, which are llama. Next, we tested the affinity of selected SEMA-binding mAbs (71D6, 71C3, 71D4, 71A3, 71G2) and PSI-binding mAbs (76H10 and 71G3) for these MET mutants by ELISA. To this end, the various MET proteins were immobilized in solid phase (100 ng/well in a 96-well plate) and then exposed to increasing concentrations of antibodies (0-50 nM) solution. […] Wild-type human MET was used as positive control.
TABLE 24 The epitopes of MET responsible for agonistic antibody binding represent residues conserved among H. sapiens, M. musculus, R. norvegicus, M. fascicularis but not among the same species and L. glama. The relevance of residues conserved among human, mouse, rat, cynomolgus monkey but not llama MET for binding to agonistic mAbs was tested by ELISA. Wild-type (WT) or mutant (MT) human MET ECD was immobilized in solid phase and exposed to increasing concentrations of mAbs in solution. […] All binding values were normalized to the WT protein and are expressed as % binding (EMAX) compared to WT MET.

[14] = biological target: T1, mouse MET ECD; assay: ELISA, mMET ECD coated
[15] = biological target: T4, native mouse MET on living cells; assay: FACS, MLP29 cells
[16] = biological target: human MET ECD mutant E (mutations 2, 3, 4) (human) (UniProt P08581); assay: ELISA, WT or mutant hMET ECD coated
[17] = biological target: human MET ECD mutant H (mutations 2, 4) (human) (UniProt P08581); assay: ELISA, WT or mutant hMET ECD coated
[18] = biological target: human MET ECD mutant D (mutations 1, 2) (human) (UniProt P08581); assay: ELISA, WT or mutant hMET ECD coated
[19] = biological target: human MET ECD mutant A (mutations 1, 2, 3) (human) (UniProt P08581); assay: ELISA, WT or mutant hMET ECD coated
[20] = biological target: T3, native human MET on living cells; assay: cell-based or functional assay; remark: listed apart in the source
[21] = biological target: T4, native mouse MET on living cells; assay: cell-based or functional assay; remark: listed apart in the source

Molecule | phospho-MET ELISA EMAX, A549 cells [3] | phospho-MET ELISA EMAX, MLP29 cells [4] | protection from staurosporine-induced apoptosis EC50, MCF10A cells [5] | protection from staurosporine-induced apoptosis EMAX, MCF10A cells [5] | protection from staurosporine-induced apoptosis EC50, MLP29 cells [6] | protection from staurosporine-induced apoptosis EMAX, MLP29 cells [6] | EMAX [7] | EMAX [8] | % binding (EMAX) vs WT MET ECD [9] | % binding (EMAX) vs WT MET ECD [10] | EMAX [11] | EC50 [14] | EMAX [15] | A549 MET act. (EMAX, % HGF) [20] | LOC br. m. (branch n.) [20] | MLP29 MET act. (EMAX, % HGF) [21] | MLP29 br. m. (branch n.) [21] | other results
5D5 mouse anti-human MET antibody |  |  |  |  |  |  |  |  |  |  |  |  |  |  |  |  |  | EC50 [1]: > 40 nM; EC50 [2]: 0.197 nM; EMAX [2]: 3.16 OD450
76H10 chimeric llama-human IgG1 mAb (antibody, V domains shown, human IgG1 CH1-CH2-CH3 and human CL lambda) VH: QLQLVESGGGLVQPGGSLRVSCTASGFTFNTYYMTWVRQAPGKGLEWVSDINSGGGTYYADSVKGRFTISRDNAKNTLYLQMNSLKPEDTALYYCVRVRIWPVGYDYWGQGTQVTVSS VL: QAVVTQEPSLSVSPGGTVTLTCGLSSGSVTTSNYPGWFQQTPGQAPRTLIYNTNNRHSGVPSRFSGSISGNKAALTITGAQPEDEADYYCSLYTGSYTTVFGGGTHLTVL | 61.2 % HGF activity | 64.1 % HGF activity | > 32 nM | 22.8% | > 32 nM | 27.2% | 2.66 OD450 AU | 2.67 OD450 AU | 100% | 89% |  |  |  |  |  |  |  | 
71D6 chimeric llama-human IgG1 mAb (antibody, V domains shown, human IgG1 CH1-CH2-CH3 and human CL lambda; also called 71D6 Human IgG1/lambda) VH: ELQLVESGGGLVQPGGSLRLSCAASGFTFSSYGMSWVRQAPGKGLEWVSAINSYGGSTSYADSVKGRFTISRDNAKNTLYLQMNSLKPEDTAVYYCAKEVRADLSRYNDYESYDYWGQGTQVTVSS VL: QPVLNQPSALSVTLGQTAKITCQGGSLGARYAHWYQQKPGQAPVLVIYDDDSRPSGIPERFSGSSSGGTATLTISGAQAEDEGDYYCQSADSSGSVFGGGTHLTVL | 102 % HGF activity | 115 % HGF activity | 1.48 nM | 66.8% | 0.95 nM | 68.3% | 2.01 OD450 AU | 2.08 OD450 AU |  |  | 115 % CTR | 0.036 nM | 120 % CTR | 104 % HGF | 32.7 branches per spheroid | 110 % HGF | 41.3 branches per spheroid | EC50 [12]: 0.032 nM; % binding (EMAX) vs WT MET ECD [13]: 100%; % binding (EMAX) vs WT MET ECD [16]: 43.6%; % binding (EMAX) vs WT MET ECD [17]: 38.6%; % binding (EMAX) vs WT MET ECD [18]: 128%; % binding (EMAX) vs WT MET ECD [19]: 103%
71D6 llama-mouse chimeric mAb (mouse IgG1/lambda) (antibody, V domains shown, also called 71D6 Mouse IgG1/lambda) VH: ELQLVESGGGLVQPGGSLRLSCAASGFTFSSYGMSWVRQAPGKGLEWVSAINSYGGSTSYADSVKGRFTISRDNAKNTLYLQMNSLKPEDTAVYYCAKEVRADLSRYNDYESYDYWGQGTQVTVSS VL: QPVLNQPSALSVTLGQTAKITCQGGSLGARYAHWYQQKPGQAPVLVIYDDDSRPSGIPERFSGSSSGGTATLTISGAQAEDEGDYYCQSADSSGSVFGGGTHLTVLG |  |  |  |  |  |  |  |  |  |  |  | 0.036 nM |  |  | 30.4 branches per spheroid |  | 39.5 branches per spheroid | 
71G3 chimeric llama-human IgG1 mAb (antibody, V domains shown, human IgG1 CH1-CH2-CH3 and human CL lambda; also called 71G3 Human IgG1/lambda) VH: QVQLVESGGGLVQPGGSLRVSCAASGFTFSTYYMSWVRQAPGKGLEWVSDIRTDGGTYYADSVKGRFTMSRDNAKNTLYLQMNSLKPEDTALYYCARTRIFPSGYDYWGQGTQVTVSS VL: QAVVTQEPSLSVSPGGTVTLTCGLSSGSVTTSNYPGWFQQTPGQAPRTLIYNTNSRHSGVPSRFSGSISGNKAALTIMGAQPEDEADYYCSLYPGSTTVFGGGTHLTVL | 95.7 % HGF activity | 97.8 % HGF activity | 5.04 nM | 65.2% | 4.85 nM | 62.3% | 2.98 OD450 AU | 2.83 OD450 AU | 100% | 91.2% | 110 % CTR |  | 112 % CTR | 94.3 % HGF | 22.3 branches per spheroid | 96.8 % HGF | 29.3 branches per spheroid | 
